Here are results for 6 molecules from patent publication US20240010751A1 (EXELIXIS, published 2024).

Experiment [1] has as its target T1, CD47 and PD-L1 together on the surface of the same cells (CD47 PD-L1 TCA CHO cells); PD-L1 MDA-MB-231 cells; … (Homo sapiens (Human), UniProt Q08722 19-323; Q9NZQ7 19-290). Kind of experiment: flow cytometry on CD47 PD-L1 TCA CHO cells (both targets on the cells); BC1 format. In general terms: Flow cytometry measures light scatter and fluorescence of single cells or particles in a stream.

The target of experiment [2] is CD47 on cells (target cells of the assays) (Homo sapiens (Human), UniProt Q08722 19-323). Kind of experiment: cell-based or functional assay.
Experiment [3] concerns the target PD-L1 on cells (target cells of the assays) (Homo sapiens (Human), UniProt Q9NZQ7 19-290). Put plainly: cell-based or functional assay.
Experiment [4] has as its target T1, CD47 and PD-L1 together on the surface …. Kind of experiment: flow cytometry on Jeko-PD-L1 cells (both targets on the cells); BC44 format.
The target is the same in experiment [5]. Kind of experiment: flow cytometry on PD-L1 MDA-MB-231 cells (both targets on the cells); BC44 format.

Chain of PD-L1 on cells (target cells of the assays) (Q9NZQ7 19-290 limits assumed): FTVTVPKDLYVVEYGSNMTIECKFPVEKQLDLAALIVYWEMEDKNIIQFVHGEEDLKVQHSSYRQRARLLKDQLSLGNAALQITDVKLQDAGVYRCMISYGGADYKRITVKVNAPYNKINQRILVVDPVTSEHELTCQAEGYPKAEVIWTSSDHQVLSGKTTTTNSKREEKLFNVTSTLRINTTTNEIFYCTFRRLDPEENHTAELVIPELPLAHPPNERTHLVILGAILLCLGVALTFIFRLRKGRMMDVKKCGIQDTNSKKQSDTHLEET

B1: C40 x P24 bispecific antibody in a BC1 format (bispecific antibody)
chain 1: not shown
chain 2: EVQLVESGGGLVQPGGSLRLSCAASGFTFSYYYIHWVRQAPGKGLEWVAWIDPYGHSTTYADSVKGRFTISADTSKNTAYLQMNSLRAEDTAVYYCARGGRGAMDYWGQGTLVTVSSASPREPQVYTDPPSRDELTKNQVSLTCLVKGFYPSDIAVEWESNGQPENNYKTTPPVLDSDGSFFLYSKLTVDKSRWQQGNVFSCSVMHEALHNHYTQKSLSLSGEC
chain 3: DIQMTQSPSSLSASVGDRVTITCRASQSVSSAVAWYQQKPGKAPKLLIYSASSLYSGVPSRFSGSRSGTDFTLTISSLQPEDFATYYCQQVSYSPYTFGQGTKVEIKRTVAAPSVFIFPPSDEQLKSGTASVVCLLNNFYPREAKVQWKVDNALQSGNSQESVTEQDSKDSTYSLSSTLTLSKADYEKHKVYACEVTHQGLSSPVTKSFNRGECDKTHTCPPCPAPELLGGPSVFLFPPKPKDTLMISRTPEVTCVVVDVSHEDPEVKFNWYVDGVEVHNAKTKPREEQYNSTYRVVSVLTVLHQDWLNGKEYKCKVSNKALPAPIEKTISKAKGQPREPQVCTLPPSREEMTKNQVSLSCAVKGFYPSDIAVEWESNGQPENNYKTTPPVLDSDGSFFLVSKLTVDKSRWQQGNVFSCSVMHEALHNHYTQKSLSLSPGK
chain 4: EVQLVESGGGLVQPGGSLRLSCAASGFTFDQYYIHWVRQAPGKGLEWVAEIYPAGSYTYYADSVKGRFTISADTSKNTAYLQMNSLRAEDTAVYYCARGPYSVRYALDYWGQGTLVTVSSASTKGPSVFPLAPSSKSTSGGTAALGCLVKDYFPEPVTVSWNSGALTSGVHTFPAVLQSSGLYSLSSVVTVPSSSLGTQTYICNVNHKPSNTKVDKKVEPPKSC
notes: B-Body of four polypeptide chains, BC1 format; CD47 arm from C40, PD-L1 arm from P24; also called C40 × P24
Take B1: a half-maximal response in experiment [1] (EC50) required 1300 pM.

B2: C40 x P31.2 bispecific antibody in a BC44 format (bispecific antibody)
chain 1: not shown
chain 2: EVQLVESGGGLVQPGGSLRLSCAASGFTFSYYYIHWVRQAPGKGLEWVAWIDPYGHSTTYADSVKGRFTISADTSKNTAYLQMNSLRAEDTAVYYCARGGRGAMDYWGQGTLVTVSSASPREPQVYTLPPCRDELTKNQVSLTCLVKGFYPSDIAVEWESNGQPENNYKTTPPVLDSDGSFFLYSKLTVDKSRWQQGNVFSCSVMHEALHNHYTQKSLSLSPGK
chain 3: DIQMTQSPSSLSASVGDRVTITCRASQSVSSAVAWYQQKPGKAPKLLIYSASSLYSGVPSRFSGSRSGTDFTLTISSLQPEDFATYYCQQFGAEPITFGQGTKVEIKRTVAAPSVFIFPPSDEQLKSGTASVVCLLNNFYPREAKVQWKVDNALQSGNSQESVTEQDSKDSTYSLSSTLTLSKADYEKHKVYACEVTHQGLSSPVTKSFNRGECDKTHTCPPCPAPELLGGPSVFLFPPKPKDTLMISRTPEVTCVVVDVSHEDPEVKFNWYVDGVEVHNAKTKPREEQYNSTYRVVSVLTVLHQDWLNGKEYKCKVSNKALPAPIEKTISKAKGQPREPQVCTLPPSREEMTKNQVSLSCAVKGFYPSDIAVEWESNGQPENNYKTTPPVLDSDGSFFLVSKLTVDKSRWQQGNVFSCSVMHEALHNHYTQKSLSLSPGK
chain 4: EVQLVESGGGLVQPGGSLRLSCAASGFTFSSYYIHWVRQAPGKGLEWVATISSGGGFTYYADSVKGRFTISADTSKNTAYLQMNSLRAEDTAVYYCARGYTLTPVLDYWGQGTLVTVSSASTKGPSVFPLAPSSKSTSGGTAALGCLVKDYFPEPVTVSWNSGALTSGVHTFPAVLQSSGLYSLSSVVTVPSSSLGTQTYICNVNHKPSNTKVDKKVEPPKSC
notes: B-Body of four polypeptide chains, BC44 format; CD47 arm from C40, PD-L1 arm from P31.2; also called C40 × P31.2
As to B2, the “IC50, CD47/SIRPα Inhibition Assay in PD-L1 MDA-MB-231 Cells” value in experiment [2] worked out at 108 pM. Further, in experiment [3], the “IC50, PD-1/PD-L1 Inhibition Assay in Jeko-PD-L1 Cells” value is 11.5 pM and the “IC50, PD-1/PD-L1 Inhibition Assay in MDA-MB-231 PD-L1 Cells” value amounted to 1500 pM. For the same molecule, in experiment [4], the EC50 (as a rule, the concentration that produces a half-maximal response) was 227 pM. In addition, the EC50 in experiment [5] is 690 pM.

B3: C59 x P22 bispecific antibody in a BC1 format (bispecific antibody)
chain 1: not shown
chain 2: EVQLVESGGGLVQPGGSLRLSCAASGFTFTSYYIHWVRQAPGKGLEWVAYIDSKHGTTQYADSVKGRFTISADTSKNTAYLQMNSLRAEDTAVYYCARGGRSAMDYWGQGTLVTVSSASPREPQVYTDPPSRDELTKNQVSLTCLVKGFYPSDIAVEWESNGQPENNYKTTPPVLDSDGSFFLYSKLTVDKSRWQQGNVFSCSVMHEALHNHYTQKSLSLSGEC
chain 3: DIQMTQSPSSLSASVGDRVTITCRASQSVSSAVAWYQQKPGKAPKLLIYSASSLYSGVPSRFSGSRSGTDFTLTISSLQPEDFATYYCQQYYTSPYTFGQGTKVEIKRTVAAPSVFIFPPSDEQLKSGTASVVCLLNNFYPREAKVQWKVDNALQSGNSQESVTEQDSKDSTYSLSSTLTLSKADYEKHKVYACEVTHQGLSSPVTKSFNRGECDKTHTCPPCPAPELLGGPSVFLFPPKPKDTLMISRTPEVTCVVVDVSHEDPEVKFNWYVDGVEVHNAKTKPREEQYNSTYRVVSVLTVLHQDWLNGKEYKCKVSNKALPAPIEKTISKAKGQPREPQVCTLPPSREEMTKNQVSLSCAVKGFYPSDIAVEWESNGQPENNYKTTPPVLDSDGSFFLVSKLTVDKSRWQQGNVFSCSVMHEALHNHYTQKSLSLSPGK
chain 4: EVQLVESGGGLVQPGGSLRLSCAASGFTFSSYYIHWVRQAPGKGLEWVAWITSHGYSTKYADSVKGRFTISADTSKNTAYLQMNSLRAEDTAVYYCARDSVIYGLDYWGQGTLVTVSSASTKGPSVFPLAPSSKSTSGGTAALGCLVKDYFPEPVTVSWNSGALTSGVHTFPAVLQSSGLYSLSSVVTVPSSSLGTQTYICNVNHKPSNTKVDKKVEPPKSC
notes: B-Body of four polypeptide chains, BC1 format; CD47 arm from C59, PD-L1 arm from P22; also called C59 × P22
In turn, B3 came in with an EC50 in experiment [1] of 2300 pM.

B4: C56 x P22 bispecific antibody in a BC1 format (bispecific antibody)
chain 1: not shown
chain 2: EVQLVESGGGLVQPGGSLRLSCAASGFTFTYYYIHWVRQAPGKGLEWVAFIDPYSGSTEYADSVKGRFTISADTSKNTAYLQMNSLRAEDTAVYYCARGGLYALDYWGQGTLVTVSSASPREPQVYTDPPSRDELTKNQVSLTCLVKGFYPSDIAVEWESNGQPENNYKTTPPVLDSDGSFFLYSKLTVDKSRWQQGNVFSCSVMHEALHNHYTQKSLSLSGEC
chain 3: DIQMTQSPSSLSASVGDRVTITCRASQSVSSAVAWYQQKPGKAPKLLIYSASSLYSGVPSRFSGSRSGTDFTLTISSLQPEDFATYYCQQYYTSPYTFGQGTKVEIKRTVAAPSVFIFPPSDEQLKSGTASVVCLLNNFYPREAKVQWKVDNALQSGNSQESVTEQDSKDSTYSLSSTLTLSKADYEKHKVYACEVTHQGLSSPVTKSFNRGECDKTHTCPPCPAPELLGGPSVFLFPPKPKDTLMISRTPEVTCVVVDVSHEDPEVKFNWYVDGVEVHNAKTKPREEQYNSTYRVVSVLTVLHQDWLNGKEYKCKVSNKALPAPIEKTISKAKGQPREPQVCTLPPSREEMTKNQVSLSCAVKGFYPSDIAVEWESNGQPENNYKTTPPVLDSDGSFFLVSKLTVDKSRWQQGNVFSCSVMHEALHNHYTQKSLSLSPGK
chain 4: EVQLVESGGGLVQPGGSLRLSCAASGFTFSSYYIHWVRQAPGKGLEWVAWITSHGYSTKYADSVKGRFTISADTSKNTAYLQMNSLRAEDTAVYYCARDSVIYGLDYWGQGTLVTVSSASTKGPSVFPLAPSSKSTSGGTAALGCLVKDYFPEPVTVSWNSGALTSGVHTFPAVLQSSGLYSLSSVVTVPSSSLGTQTYICNVNHKPSNTKVDKKVEPPKSC
notes: B-Body of four polypeptide chains, BC1 format; CD47 arm from C56, PD-L1 arm from P22; also called C56 × P22
The molecule B4 returned a 50% effective concentration (EC50) in experiment [1] of 1100 pM.

B5: C59 x P22 bispecific antibody in a BC44 format (bispecific antibody)
chain 1: not shown
chain 2: EVQLVESGGGLVQPGGSLRLSCAASGFTFTSYYIHWVRQAPGKGLEWVAYIDSKHGTTQYADSVKGRFTISADTSKNTAYLQMNSLRAEDTAVYYCARGGRSAMDYWGQGTLVTVSSASPREPQVYTLPPCRDELTKNQVSLTCLVKGFYPSDIAVEWESNGQPENNYKTTPPVLDSDGSFFLYSKLTVDKSRWQQGNVFSCSVMHEALHNHYTQKSLSLSPGK
chain 3: DIQMTQSPSSLSASVGDRVTITCRASQSVSSAVAWYQQKPGKAPKLLIYSASSLYSGVPSRFSGSRSGTDFTLTISSLQPEDFATYYCQQYYTSPYTFGQGTKVEIKRTVAAPSVFIFPPSDEQLKSGTASVVCLLNNFYPREAKVQWKVDNALQSGNSQESVTEQDSKDSTYSLSSTLTLSKADYEKHKVYACEVTHQGLSSPVTKSFNRGECDKTHTCPPCPAPELLGGPSVFLFPPKPKDTLMISRTPEVTCVVVDVSHEDPEVKFNWYVDGVEVHNAKTKPREEQYNSTYRVVSVLTVLHQDWLNGKEYKCKVSNKALPAPIEKTISKAKGQPREPQVCTLPPSREEMTKNQVSLSCAVKGFYPSDIAVEWESNGQPENNYKTTPPVLDSDGSFFLVSKLTVDKSRWQQGNVFSCSVMHEALHNHYTQKSLSLSPGK
chain 4: EVQLVESGGGLVQPGGSLRLSCAASGFTFSSYYIHWVRQAPGKGLEWVAWITSHGYSTKYADSVKGRFTISADTSKNTAYLQMNSLRAEDTAVYYCARDSVIYGLDYWGQGTLVTVSSASTKGPSVFPLAPSSKSTSGGTAALGCLVKDYFPEPVTVSWNSGALTSGVHTFPAVLQSSGLYSLSSVVTVPSSSLGTQTYICNVNHKPSNTKVDKKVEPPKSC
notes: B-Body of four polypeptide chains, BC44 format; CD47 arm from C59, PD-L1 arm from P22; also called C59 × P22
Turning to B5, the “IC50, CD47/SIRPα Inhibition Assay in PD-L1 MDA-MB-231 Cells” value in experiment [2] came to 350 pM. Further, in experiment [3], the “IC50, PD-1/PD-L1 Inhibition Assay in Jeko-PD-L1 Cells” value came out at 48.1 pM and the “IC50, PD-1/PD-L1 Inhibition Assay in MDA-MB-231 PD-L1 Cells” value is 2500 pM. This molecule showed an EC50 in experiment [5] of 1500 pM.

B6: C40 x P31.2 bispecific antibody in a BC1 format (bispecific antibody)
chain 1: not shown
chain 2: EVQLVESGGGLVQPGGSLRLSCAASGFTFSYYYIHWVRQAPGKGLEWVAWIDPYGHSTTYADSVKGRFTISADTSKNTAYLQMNSLRAEDTAVYYCARGGRGAMDYWGQGTLVTVSSASPREPQVYTDPPSRDELTKNQVSLTCLVKGFYPSDIAVEWESNGQPENNYKTTPPVLDSDGSFFLYSKLTVDKSRWQQGNVFSCSVMHEALHNHYTQKSLSLSGEC
chain 3: DIQMTQSPSSLSASVGDRVTITCRASQSVSSAVAWYQQKPGKAPKLLIYSASSLYSGVPSRFSGSRSGTDFTLTISSLQPEDFATYYCQQFGAEPITFGQGTKVEIKRTVAAPSVFIFPPSDEQLKSGTASVVCLLNNFYPREAKVQWKVDNALQSGNSQESVTEQDSKDSTYSLSSTLTLSKADYEKHKVYACEVTHQGLSSPVTKSFNRGECDKTHTCPPCPAPELLGGPSVFLFPPKPKDTLMISRTPEVTCVVVDVSHEDPEVKFNWYVDGVEVHNAKTKPREEQYNSTYRVVSVLTVLHQDWLNGKEYKCKVSNKALPAPIEKTISKAKGQPREPQVCTLPPSREEMTKNQVSLSCAVKGFYPSDIAVEWESNGQPENNYKTTPPVLDSDGSFFLVSKLTVDKSRWQQGNVFSCSVMHEALHNHYTQKSLSLSPGK
chain 4: EVQLVESGGGLVQPGGSLRLSCAASGFTFSSYYIHWVRQAPGKGLEWVATISSGGGFTYYADSVKGRFTISADTSKNTAYLQMNSLRAEDTAVYYCARGYTLTPVLDYWGQGTLVTVSSASTKGPSVFPLAPSSKSTSGGTAALGCLVKDYFPEPVTVSWNSGALTSGVHTFPAVLQSSGLYSLSSVVTVPSSSLGTQTYICNVNHKPSNTKVDKKVEPPKSC
notes: B-Body of four polypeptide chains, BC1 format; CD47 arm from C40, PD-L1 arm from P31.2; also called C40 × P31.2
In the case of B6, the response in experiment [1] was half-maximal at 130 pM (EC50).
